Assays:
[1] = target: FcγRIIIaV158 (R&D system) (human) (UniProt P08637); experiment: ELISA, purified IgG from YB2/0, vs R603 IgG-WT
[2] = target: FcγRIIb (R&D system) (human) (UniProt P31994); experiment: ELISA, purified IgG from YB2/0, vs R603 IgG-WT
[3] = target: FcγRIIaH131 (PX Therapeutics, His-tagged) (human) (UniProt P12318); experiment: ELISA, purified IgG from YB2/0, vs R603 IgG-WT
[4] = target: FcγRI (R&D system) (human) (UniProt P12314); experiment: ELISA, purified IgG from YB2/0, vs R603 IgG-WT
[5] = target: FcRn-p3 (fusion protein of β2 microglobulin chain and FcRn α-chain fused to bacteriophage protein p3 and CVDE protein) (UniProt P61769); experiment: ELISA, purified IgG from YB2/0, vs R603 IgG-WT
[6] = target: FcγRIIIaF158 (PX Therapeutics, His-tagged) (human) (UniProt P08637); experiment: ELISA, purified IgG from YB2/0, vs R603 IgG-WT
[7] = target: FcγRIIaR131 (R&D system) (human) (UniProt P12318); experiment: ELISA, purified IgG from YB2/0, vs R603 IgG-WT
[8] = target: T1, CD20 antigen on Raji lymphoblastoid B cells (UniProt P11836); experiment: flow cytometry on Raji cells
T1 sequence (looked up): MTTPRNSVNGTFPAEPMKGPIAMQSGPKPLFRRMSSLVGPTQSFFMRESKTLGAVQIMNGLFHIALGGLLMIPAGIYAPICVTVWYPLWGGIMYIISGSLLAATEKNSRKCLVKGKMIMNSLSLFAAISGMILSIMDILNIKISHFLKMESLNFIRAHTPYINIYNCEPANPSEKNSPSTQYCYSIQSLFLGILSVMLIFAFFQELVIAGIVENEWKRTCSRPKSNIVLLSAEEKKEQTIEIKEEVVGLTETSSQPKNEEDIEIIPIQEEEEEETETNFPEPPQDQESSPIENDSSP

[9] = target: C1q complement (Calbiochem) (UniProt P02745); experiment: ELISA, 293-F supernatant, vs parent 259I/315D/434Y
[10] = target: FcγRIIIaV158 (R&D system) (human) (UniProt P08637); experiment: ELISA, 293-F supernatant, vs parent 259I/315D/434Y
[11] = target: FcγRIIb (R&D system) (human) (UniProt P31994); experiment: ELISA, 293-F supernatant, vs parent 259I/315D/434Y
[12] = target: FcγRI (R&D system) (human) (UniProt P12314); experiment: ELISA, 293-F supernatant, vs parent 259I/315D/434Y
[13] = target: FcRn-p3 (fusion protein of β2 microglobulin chain and FcRn α-chain fused to bacteriophage protein p3 and CVDE protein) (UniProt P61769); experiment: ELISA, 293-F supernatant, vs parent 259I/315D/434Y
[14] = target: FcγRIIaR131 (R&D system) (human) (UniProt P12318); experiment: ELISA, 293-F supernatant, vs parent 259I/315D/434Y
[15] = target: Recombinant soluble human FcRn (human) (UniProt P55899); experiment: SPR, FcRn immobilised, pH 6.0; reference R603
[16] = target: Recombinant soluble human FcRn (human) (UniProt P55899); experiment: SPR (BIAcore X100), FcRn immobilised, pH 6.0
[17] = target: FcγRIIIaV158 (R&D system) (human) (UniProt P08637); experiment: ELISA, purified IgG from YB2/0, vs parent R603-259I/315D/434Y
[18] = target: FcγRIIb (R&D system) (human) (UniProt P31994); experiment: as above
[19] = target: FcγRIIaH131 (PX Therapeutics, His-tagged) (human) (UniProt P12318); experiment: as above
[20] = target: FcγRI (R&D system) (human) (UniProt P12314); experiment: as above
[21] = target: FcRn-p3 (fusion protein of β2 microglobulin chain and FcRn α-chain fused to bacteriophage protein p3 and CVDE protein) (UniProt P61769); experiment: as above
[22] = target: FcγRIIIaF158 (PX Therapeutics, His-tagged) (human) (UniProt P08637); experiment: as above
[23] = target: FcγRIIaR131 (R&D system) (human) (UniProt P12318); experiment: as above
[24] = target: C1q complement (Calbiochem) (UniProt P02745); experiment: ELISA, 293-F supernatant, vs R603 IgG-WT
[25] = target: FcγRIIIaV158 (R&D system) (human) (UniProt P08637); experiment: ELISA, 293-F supernatant, vs R603 IgG-WT
[26] = target: FcγRIIb (R&D system) (human) (UniProt P31994); experiment: ELISA, 293-F supernatant, vs R603 IgG-WT
[27] = target: FcγRI (R&D system) (human) (UniProt P12314); experiment: ELISA, 293-F supernatant, vs R603 IgG-WT
[28] = target: FcRn-p3 (fusion protein of β2 microglobulin chain and FcRn α-chain fused to bacteriophage protein p3 and CVDE protein) (UniProt P61769); experiment: ELISA, 293-F supernatant, vs R603 IgG-WT
[29] = target: FcγRIIaR131 (R&D system) (human) (UniProt P12318); experiment: ELISA, 293-F supernatant, vs R603 IgG-WT
[30] = target: FcγRIIIaV158 (R&D system) (human) (UniProt P08637); experiment: ELISA, purified IgG from YB2/0, vs R593 IgG-WT
[31] = target: FcγRIIb (R&D system) (human) (UniProt P31994); experiment: ELISA, purified IgG from YB2/0, vs R593 IgG-WT
[32] = target: FcγRIIaH131 (PX Therapeutics, His-tagged) (human) (UniProt P12318); experiment: ELISA, purified IgG from YB2/0, vs R593 IgG-WT
[33] = target: FcγRI (R&D system) (human) (UniProt P12314); experiment: ELISA, purified IgG from YB2/0, vs R593 IgG-WT
[34] = target: FcRn-p3 (fusion protein of β2 microglobulin chain and FcRn α-chain fused to bacteriophage protein p3 and CVDE protein) (UniProt P61769); experiment: ELISA, purified IgG from YB2/0, vs R593 IgG-WT
[35] = target: FcγRIIIaF158 (PX Therapeutics, His-tagged) (human) (UniProt P08637); experiment: ELISA, purified IgG from YB2/0, vs R593 IgG-WT
[36] = target: FcγRIIaR131 (R&D system) (human) (UniProt P12318); experiment: ELISA, purified IgG from YB2/0, vs R593 IgG-WT
Fcγ receptors = experiment: cell-based or functional assay
[37] = target: RhD antigen on RhD+ red blood cells (UniProt Q02161); experiment: flow cytometry on RhD+ red blood cells
[38] = target: Recombinant soluble human FcRn (human) (UniProt P55899); experiment: SPR, FcRn immobilised, pH 6.0; reference R593
[39] = target: FcγRIIIaV158 (R&D system) (human) (UniProt P08637); experiment: ELISA, purified IgG from YB2/0, vs parent R593-256N/378V/383N/434Y
[40] = target: FcγRIIb (R&D system) (human) (UniProt P31994); experiment: as above
[41] = target: FcγRIIaH131 (PX Therapeutics, His-tagged) (human) (UniProt P12318); experiment: as above
[42] = target: FcγRI (R&D system) (human) (UniProt P12314); experiment: as above
[43] = target: FcRn-p3 (fusion protein of β2 microglobulin chain and FcRn α-chain fused to bacteriophage protein p3 and CVDE protein) (UniProt P61769); experiment: as above
[44] = target: FcγRIIIaF158 (PX Therapeutics, His-tagged) (human) (UniProt P08637); experiment: as above
[45] = target: FcγRIIaR131 (R&D system) (human) (UniProt P12318); experiment: as above
[46] = target: FcγRIIIaV158 (R&D system) (human) (UniProt P08637); experiment: ELISA, purified IgG from YB2/0, vs parent R593-259I/315D/434Y
[47] = target: FcγRIIb (R&D system) (human) (UniProt P31994); experiment: as above
[48] = target: FcγRIIaH131 (PX Therapeutics, His-tagged) (human) (UniProt P12318); experiment: as above
[49] = target: FcγRI (R&D system) (human) (UniProt P12314); experiment: as above
[50] = target: FcRn-p3 (fusion protein of β2 microglobulin chain and FcRn α-chain fused to bacteriophage protein p3 and CVDE protein) (UniProt P61769); experiment: as above
[51] = target: FcγRIIIaF158 (PX Therapeutics, His-tagged) (human) (UniProt P08637); experiment: as above
[52] = target: FcγRIIaR131 (R&D system) (human) (UniProt P12318); experiment: as above

FcγRIIb (R&D system) (human), sequence (P31994 46-217 limits assumed): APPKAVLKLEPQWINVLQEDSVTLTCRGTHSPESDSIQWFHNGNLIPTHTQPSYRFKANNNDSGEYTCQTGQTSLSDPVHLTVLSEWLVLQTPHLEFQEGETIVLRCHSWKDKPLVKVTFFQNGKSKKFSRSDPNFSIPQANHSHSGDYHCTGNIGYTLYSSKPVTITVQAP
FcγRIIaR131 (R&D system) (human), sequence (P12318 36-218 H167R limits assumed): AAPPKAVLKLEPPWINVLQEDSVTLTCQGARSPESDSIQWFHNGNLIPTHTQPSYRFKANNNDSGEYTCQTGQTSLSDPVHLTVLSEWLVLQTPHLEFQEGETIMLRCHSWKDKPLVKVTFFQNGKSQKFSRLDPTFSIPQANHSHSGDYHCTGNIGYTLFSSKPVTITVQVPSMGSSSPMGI
FcγRIIaH131 (PX Therapeutics, His-tagged) (human), sequence (P12318 34-217 limits assumed): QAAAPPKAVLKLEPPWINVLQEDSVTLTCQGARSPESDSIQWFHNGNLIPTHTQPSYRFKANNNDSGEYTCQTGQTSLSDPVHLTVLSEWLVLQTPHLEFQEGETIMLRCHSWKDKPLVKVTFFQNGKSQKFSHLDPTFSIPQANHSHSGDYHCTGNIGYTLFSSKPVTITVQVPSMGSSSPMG
FcRn-p3 (fusion protein of β2 microglobulin chain and FcRn α-chain fused to bacteriophage protein p3 and CVDE protein), sequence (P61769 21-119, chain 1 of 2): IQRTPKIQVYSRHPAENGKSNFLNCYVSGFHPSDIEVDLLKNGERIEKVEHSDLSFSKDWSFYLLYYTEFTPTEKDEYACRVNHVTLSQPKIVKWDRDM
FcRn-p3 (fusion protein of β2 microglobulin chain and FcRn α-chain fused to bacteriophage protein p3 and CVDE protein), sequence (P55899 24-290, chain 2 of 2, further chain): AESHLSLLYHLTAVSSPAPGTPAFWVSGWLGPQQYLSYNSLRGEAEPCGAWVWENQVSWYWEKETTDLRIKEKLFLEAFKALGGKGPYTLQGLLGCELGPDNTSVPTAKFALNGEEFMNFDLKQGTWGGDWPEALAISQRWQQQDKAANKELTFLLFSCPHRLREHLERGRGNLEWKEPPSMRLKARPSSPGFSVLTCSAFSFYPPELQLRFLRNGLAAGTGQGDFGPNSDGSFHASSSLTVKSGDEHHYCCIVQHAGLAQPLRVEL
Recombinant soluble human FcRn (human), sequence (P55899 24-290 limits assumed, chain 1 of 2): as the sequence (P55899 24-290, chain 2 of 2, further chain) above
Recombinant soluble human FcRn (human), sequence (P61769 21-119 limits assumed, chain 2 of 2, further chain): as the sequence (P61769 21-119, chain 1 of 2) above
FcγRIIIaF158 (PX Therapeutics, His-tagged) (human), sequence (P08637 17-208 limits assumed): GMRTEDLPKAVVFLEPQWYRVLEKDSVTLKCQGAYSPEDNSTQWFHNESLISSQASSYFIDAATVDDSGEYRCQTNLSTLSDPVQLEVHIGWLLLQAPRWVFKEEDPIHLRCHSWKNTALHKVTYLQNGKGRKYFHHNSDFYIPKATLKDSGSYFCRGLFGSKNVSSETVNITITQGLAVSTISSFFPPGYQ
FcγRIIIaV158 (R&D system) (human), sequence (P08637 17-208 F176V limits assumed): as the sequence (P08637 17-208 limits assumed) above, with F160V counted along it
FcγRI (R&D system) (human), sequence (P12314 16-288 limits assumed): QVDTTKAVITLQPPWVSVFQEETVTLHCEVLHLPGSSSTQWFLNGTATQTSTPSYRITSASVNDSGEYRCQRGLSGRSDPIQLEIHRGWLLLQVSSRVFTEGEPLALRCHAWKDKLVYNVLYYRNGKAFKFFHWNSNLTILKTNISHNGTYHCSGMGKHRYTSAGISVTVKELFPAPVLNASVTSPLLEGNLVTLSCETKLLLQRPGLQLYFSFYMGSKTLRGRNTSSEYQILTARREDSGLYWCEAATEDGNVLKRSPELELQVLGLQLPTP
RhD antigen on RhD+ red blood cells, sequence (Q02161 2-417 limits assumed): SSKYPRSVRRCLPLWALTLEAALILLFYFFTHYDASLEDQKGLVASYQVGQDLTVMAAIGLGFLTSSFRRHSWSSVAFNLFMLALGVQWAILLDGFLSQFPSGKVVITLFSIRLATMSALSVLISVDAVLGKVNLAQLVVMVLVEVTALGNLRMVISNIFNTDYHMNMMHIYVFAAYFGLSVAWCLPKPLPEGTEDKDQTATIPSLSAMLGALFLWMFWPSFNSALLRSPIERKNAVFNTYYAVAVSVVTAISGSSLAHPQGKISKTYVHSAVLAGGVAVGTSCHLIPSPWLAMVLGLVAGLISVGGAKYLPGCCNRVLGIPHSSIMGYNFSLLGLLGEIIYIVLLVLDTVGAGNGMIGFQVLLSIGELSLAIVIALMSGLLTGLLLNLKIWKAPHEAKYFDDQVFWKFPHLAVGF
C1q complement (Calbiochem), sequence (P02745 23-245, chain 1 of 3): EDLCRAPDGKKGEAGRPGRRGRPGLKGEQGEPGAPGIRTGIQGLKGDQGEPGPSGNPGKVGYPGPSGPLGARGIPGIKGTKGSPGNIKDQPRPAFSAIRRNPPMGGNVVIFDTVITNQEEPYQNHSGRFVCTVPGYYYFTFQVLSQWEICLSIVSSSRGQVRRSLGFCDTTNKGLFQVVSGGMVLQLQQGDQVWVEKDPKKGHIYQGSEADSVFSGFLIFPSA
C1q complement (Calbiochem), sequence (P02746 28-253, chain 2 of 3, further chain): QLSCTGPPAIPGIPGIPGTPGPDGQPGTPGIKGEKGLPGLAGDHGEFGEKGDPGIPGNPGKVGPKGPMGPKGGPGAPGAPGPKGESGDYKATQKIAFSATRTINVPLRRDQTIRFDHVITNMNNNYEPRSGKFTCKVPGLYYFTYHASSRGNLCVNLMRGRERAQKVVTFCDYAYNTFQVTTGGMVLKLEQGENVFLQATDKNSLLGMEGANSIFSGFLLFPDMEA
C1q complement (Calbiochem), sequence (P02747 29-245, chain 3 of 3, further chain): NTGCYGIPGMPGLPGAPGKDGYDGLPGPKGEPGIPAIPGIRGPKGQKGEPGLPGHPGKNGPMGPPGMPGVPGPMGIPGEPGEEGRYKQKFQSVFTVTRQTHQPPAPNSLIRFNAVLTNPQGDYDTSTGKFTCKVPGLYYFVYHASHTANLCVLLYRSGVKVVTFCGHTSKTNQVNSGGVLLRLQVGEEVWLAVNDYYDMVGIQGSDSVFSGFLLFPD

For “R603 anti-CD20 IgG1 variant 259I/294Del/315D/434Y (antibody)”, the Ratio/IgG-WT [1] was 0.05, the Ratio/IgG-WT [2] was 0.41 and the Ratio/IgG-WT [3] was 0.08. The Ratio/IgG-WT [4] was 0.1, the Ratio/IgG-WT [5] was 5.97 and the Ratio/IgG-WT [6] was 0.08. The Ratio/IgG-WT [7] was 0.07, the Ag binding MFI (Arbitrary Unit) [8] was 96 and the ratio to the IgG1 without 294Del [9] was 0.1. The ratio to the IgG1 without 294Del [10] was 0.02, the ratio to the IgG1 without 294Del [11] was 0.01 and the ratio to the IgG1 without 294Del [12] was 0.41. It also gave a ratio to the IgG1 without 294Del [13] of 0.66, a ratio to the IgG1 without 294Del [14] of 0.01 and a Ratio WT/IgG (KD) [15] of 3.54. The Kd [16] was 28 nM, the ratio to the IgG1 without 294Del [17] was 0.05 and the ratio to the IgG1 without 294Del [18] was 0.27. It also gave a ratio to the IgG1 without 294Del [19] of 0.08, a ratio to the IgG1 without 294Del [20] of 0.09 and a ratio to the IgG1 without 294Del [21] of 0.86. It also gave a ratio to the IgG1 without 294Del [22] of 0.07, a ratio to the IgG1 without 294Del [23] of 0.06 and a Ratio/IgG-WT [24] of 0.13. It also gave a Ratio/IgG-WT [25] of 0.02, a Ratio/IgG-WT [26] of 0.01 and a Ratio/IgG-WT [27] of 0.34. The Ratio/IgG-WT [28] was 2.87 and the Ratio/IgG-WT [29] was 0.01.

Substance “R593 anti-RhD+ IgG1 variant 256N/294Del/378V/383N/434Y (antibody)” has a Ratio/IgG-WT [30] of 0.1, a Ratio/IgG-WT [31] of 0.27 and a Ratio/IgG-WT [32] of 0.17. The Ratio/IgG-WT [33] was 0.12, the Ratio/IgG-WT [34] was 7.48 and the Ratio/IgG-WT [35] was 0.1. It also gave a Ratio/IgG-WT [36] of 0.17, an ADCC EC50 (ng/ml), lysis of RhD+ red cells (Fcγ receptors) of 75.9 ng/mL and an ADCC Max. Lysis (%) (Fcγ receptors) of 6%. The Ag binding MFI (Arbitrary Unit) [37] was 44.7, the Ratio WT/IgG (KD) [38] was 44.9 and the ratio to the IgG1 without 294Del [39] was 0.1. For the same substance, the ratio to the IgG1 without 294Del [40] was 0.17, the ratio to the IgG1 without 294Del [41] was 0.17 and the ratio to the IgG1 without 294Del [42] was 0.05. The ratio to the IgG1 without 294Del [43] was 1, the ratio to the IgG1 without 294Del [44] was 0.11 and the ratio to the IgG1 without 294Del [45] was 0.16. It also gave a Kd [16] of 4.23 nM.

“R593 anti-RhD+ IgG1 variant 259I/294Del/315D/434Y (antibody)” showed a Ratio/IgG-WT [30] of 0.07, a Ratio/IgG-WT [31] of 0.18 and a Ratio/IgG-WT [32] of 0.1. It also gave a Ratio/IgG-WT [33] of 0.13, a Ratio/IgG-WT [34] of 7.19 and a Ratio/IgG-WT [35] of 0.07. The Ratio/IgG-WT [36] was 0.12, the ratio to the IgG1 without 294Del [46] was 0.07 and the ratio to the IgG1 without 294Del [47] was 0.13. It also gave a ratio to the IgG1 without 294Del [48] of 0.11, a ratio to the IgG1 without 294Del [49] of 0.12 and a ratio to the IgG1 without 294Del [50] of 0.91. For the same substance, the ratio to the IgG1 without 294Del [51] was 0.07, the ratio to the IgG1 without 294Del [52] was 0.11 and the ADCC EC50 (ng/ml), lysis of RhD+ red cells (Fcγ receptors) was 75.9 ng/mL. For the same substance, the ADCC Max. Lysis (%) (Fcγ receptors) was 4%, the Ag binding MFI (Arbitrary Unit) [37] was 47.9 and the Ratio WT/IgG (KD) [38] was 9.41. For the same substance, the Kd [16] was 20.2 nM.

From US20140378663A1
